Assay results taken from article PMC3764444, “Involvement of A20 in the molecular switch that activates the non-canonical NF-кB pathway” (Scientific Reports, 2013).

Target: T1, recombinant cIAP1 protein (human, UniProt Q13490 1-618)
T1 construct: the whole cIAP1, human cDNA; cloned in pGEX-6P-1; also called released from GST-cIAP1 (GST-cIAP); source: E. coli DH5α, purified (Glutathione Sepharose 4B), released from the beads with 3C protease (Turbo3C)
Experiment: pull-down; GST pull-down: 2 μg polyubiquitin chains or 0.5 μg cIAP1 with 0.5 μg GST or GST-ZnF5-7 proteins and Glutathione Sepharose 4B in TNE buffer (20 mM Tris-HCl pH 7.5, 130 mM NaCl, 1% Triton X-100, 1 mM EDTA) with 0.5 mM DTT and 0.1 mg/ml BSA, 3 hr; immunoblot
Settings: both partners purified

T1 sequence (Q13490 whole entry): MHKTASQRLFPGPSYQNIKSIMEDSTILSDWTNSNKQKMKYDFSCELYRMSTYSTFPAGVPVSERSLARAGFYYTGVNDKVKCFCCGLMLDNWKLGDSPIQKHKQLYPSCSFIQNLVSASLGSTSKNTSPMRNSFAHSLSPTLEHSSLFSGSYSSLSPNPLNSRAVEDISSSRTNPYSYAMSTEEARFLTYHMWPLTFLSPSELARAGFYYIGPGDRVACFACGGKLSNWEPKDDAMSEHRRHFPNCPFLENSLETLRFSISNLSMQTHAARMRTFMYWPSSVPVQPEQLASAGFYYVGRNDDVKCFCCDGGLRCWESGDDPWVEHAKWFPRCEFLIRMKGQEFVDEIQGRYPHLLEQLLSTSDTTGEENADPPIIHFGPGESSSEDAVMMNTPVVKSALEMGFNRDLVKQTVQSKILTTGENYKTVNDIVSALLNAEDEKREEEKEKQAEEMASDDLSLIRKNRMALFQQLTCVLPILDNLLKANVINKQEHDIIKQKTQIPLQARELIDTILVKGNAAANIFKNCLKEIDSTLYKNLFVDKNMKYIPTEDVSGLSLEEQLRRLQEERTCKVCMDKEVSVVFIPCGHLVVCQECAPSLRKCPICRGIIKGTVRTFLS

B1: GST-A20-ZnF5-7 (domain or fragment, human, UniProt P21580 647-790, looked up)
chain: TASRFQNTIPCLGRECGTLGSTMFEGYCQKCFIEAQNQRFHEAKRTEEQLRSSQRRDVPRTTQSTSRPKCARASCKNILACRSEELCMECQHPNQRMGPGAHRGEPAPEDPPKQRCRAPACDHFGNAKCNGYCNECFQFKQMYG
notes: A20, human, fragment aa 647-790 encompassing ZnF5 to ZnF7; cloned in pGEX-6P-1; also called GST-ZnF5-7; source: E. coli DH5α, purified (Glutathione Sepharose 4B), dialyzed with PBS
B1: binds.
